# From PMC7808953 (Redox Biology, 2020)
# B1: hypochlorite-treated α2-macroglobulin (natural protein)
# chain: SVSGKPQYMVLVPSLLHTETTEKGCVLLSYLNETVTVSASLESVRGNRSLFTDLEAENDVLHCVAFAVPKSSSNEEVMFLTVQVKGPTQEFKKRTTVMVKNEDSLVFVQTDKSIYKPGQTVKFRVVSMDENFHPLNELIPLVYIQDPKGNRIAQWQSFQLEGGLKQFSFPLSSEPFQGSYKVVVQKKSGGRTEHPFTVEEFVLPKFEVQVTVPKIITILEEEMNVSVCGLYTYGKPVPGHVTVSICRKYSDASDCHGEDSQAFCEKFSGQLNSHGCFYQQVKTKVFQLKRKEYEMKLHTEAQIQEEGTVVELTGRQSSEITRTITKLSFVKVDSHFRQGIPFFGQVRLVDGKGVPIPNKVIFIRGNEANYYSNATTDEHGLVQFSINTTNVMGTSLTVRVNYKDRSPCYGYQWVSEEHEEAHHTAYLVFSPSKSFVHLEPMSHELPCGHTQTVQAHYILNGGTLLGLKKLSFYYLIMAKGGIVRTGTHGLLVKQEDMKGHFSISIPVKSDIAPVARLLIYAVLPTGDVIGDSAKYDVENCLANKVDLSFSPSQSLPASHAHLRVTAAPQSVCALRAVDQSVLLMKPDAELSASSVYNLLPEKDLTGFPGPLNDQDNEDCINRHNVYINGITYTPVSSTNEKDMYSFLEDMGLKAFTNSKIRKPKMCPQLQQYEMHGPEGLRVGFYESDVMGRGHARLVHVEEPHTETVRKYFPETWIWDLVVVNSAGVAEVGVTVPDTITEWKAGAFCLSEDAGLGISSTASLRAFQPFFVELTMPYSVIRGEAFTLKATVLNYLPKCIRVSVQLEASPAFLAVPVEKEQAPHCICANGRQTVSWAVTPKSLGNVNFTVSAEALESQELCGTEVPSVPEHGRKDTVIKPLLVEPEGLEKETTFNSLLCPSGGEVSEELSLKLPPNVVEESARASVSVLGDILGSAMQNTQNLLQMPYGCGEQNMVLFAPNIYVLDYLNETQQLTPEIKSKAIGYLNTGYQRQLNYKHYDGSYSTFGERYGRNQGNTWLTAFVLKTFAQARAYIFIDEAHITQALIWLSQRQKDNGCFRSSGSLLNNAIKGGVEDEVTLSAYITIALLEIPLTVTHPVVRNALFCLESAWKTAQEGDHGSHVYTKALLAYAFALAGNQDKRKEVLKSLNEEAVKKDNSVHWERPQKPKAPVGHFYEPQAPSAEVEMTSYVLLAYLTAQPAPTSEDLTSATNIVKWITKQQNAQGGFSSTQDTVVALHALSKYGAATFTRTGKAAQVTIQSSGTFSSKFQVDNNNRLLLQQVSLPELPGEYSMKVTGEGCVYLQTSLKYNILPEKEEFPFALGVQTLPQTCDEPKAHTSFQISLSVSYTGSRSASNMAIVDVKMVSGFIPLKPTVKMLERSNHVSRTEVSSNHVLIYLDKVSNQTLSLFFTVLQDVPVRDLKPAIVKVYDYYETDEFAIAEYNAPCSKDLGNA
# modifications: modified by hypochlorite (NaOCl); residues not given
# Molecular target: the molecule itself
# Assay: native gel or EMSA
protein,measurement,value
B1,stoichiometry N,2
